# Assay results: patent US20240191211A1, “BIOLUMINESCENCE-TRIGGERED PHOTOCATALYTIC LABELING” (Promega Corporation, priority 2022, published 2024)
# Experiments:
# [1] = Brightness and BRET efficiency to a bound HaloTag TMR-fluorescent ligand; type: biochemical; conditions: versus HaloTag-LgBiT configuration, complemented with VS-HiBiT
# From the text: The efficiency of bioluminescence-triggered catalyst activation depends on the emission intensity of the luciferase energy donor, spectral overlap between luciferase emission and catalyst excitation, proximity between the luciferase and catalyst, and capacity of the complex to adopt a conformation favorable for efficient energy transfer between the two. First, the influence of the NanoLuc-HaloTag fusion orientation on the efficiency of bioluminescence resonance energy transfer (BRET) to a bound HaloTag TMR-fluorescent ligand was tested. To this end, fusions either untethered or tethered to a HaloTag TMR-fluorescent ligand were diluted in TBS+0.01% BSA to a final concentration of 6.6 nM and then treated with 10× fluorofurimazine at a final concentration of 20 M. Following 3 minutes incubation, raw luminescence (Total RLU) or filtered luminesces for donor (e.g., 450 nm/8 nm BP) and acceptor (600 nm LP) emissions, respectively were measured on a GloMax® Discover plate reader (Promega). BRET ratios were further calculated for each sample by dividing the acceptor emission value by its donor emission value. While both orientations delivered equivalent brightness one of them NanoLuc-HaloTag provided greater BRET efficiency (FIG. 16A), which is likely due to greater proximity between NanoLuc's substrate binding site and the bound fluorescent ligand. […]
# [2] = test system: VS-HiBiT peptide; assay: Complementation affinity with VS-HiBiT peptide; type: binding; conditions: versus HaloTag-LgBiT configuration
# From the text: Such configuration offers a modality agnostic approach for proximity between the photocatalytic complex and protein of interest genetically fused to HiBiT as well as greater spatial control over photocatalytic reactivity. First, the properties of the bioluminescent complementation reporter comprising VS-HiBiT peptide and either HaloTag-LgBiT or LgBiT-HaloTag were compared (FIG. 23 A-C). To determine complementation affinity, equal volumes of VS-HiBiT peptide serially diluted in TBS+0.01% BSA to final concentrations of 200-0 nM and HaloTag-LgBiT or LgBiT-HaloTag diluted in TBS+0.01% BSA to a final concentration of 0.2 nM were combined in wells of a white 96-well plate and mixed for 30 minutes. Following a 3-minutes treatment with either 10× furimazine or fluorofurimazine at a final concentration 20 M, bioluminescence was measured on a GloMax® Discover plate reader (Promega), and binding affinity (Kd) was derived from a saturation binding curve of luminescence against VS-HiBiT concentration (FIG. 23A). […] Following a 3-minutes treatment with either 10× furimazine or fluorofurimazine at a final concentration 20 M, raw luminescence (Total RLU; FIG. 23B) or filtered luminesces of donor (e.g., 450 nm/8 nm BP) and acceptor (600 nm LP) emissions were measured on a GloMax® Discover plate reader (Promega). […]
molecule,measurement,setting,value
"VS-HiBiT/LgBiT-HaloTag: bioluminescent complementation reporter comprising VS-HiBiT peptide and LgBiT-HaloTag (protein, left off: large carriers) MVFTLEDFVGDWEQTAAYNLDQVLEQGGVSSLLQNLAVSVTPIQRIVRSGENALKIDIHVIIPYEGLSADQMAQIEEVFKVVYPVDDHHFKVILPYGTLVIDGVTPNMLNYFGRPYEGIAVFDGKKITVTGTLWNGNKIIDERLITPDGSMLFRVTINSMAEIGTGFPFDPHYVEVLGERMHYVDVGPRDGTPVLFLHGNPTSSYVWRNIIPHVAPTHRCIAPDLIGMGKSDKPDLGYFFDDHVRFMDAFIEALGLEEVVLVIHDWGSALGFHWAKRNPERVKGIAFMEFIRPIPTWDEWPEFARETFQAFRTTDVGRKLIIDQNVFIEGTLPMGVVRPLTEVEMDHYREPFLNPVDREPLWRFPNELPIAGEPANIVALVEEYMDWLHQSPVPKLLFWGTPGVLIPPAEAARLAKSLPNCKAVDIGPGLNLLQEDNPDLIGSEIARWLSTLEISG","BRET efficiency, fold greater",[1],1.5-2 fold
same,"complementation affinity, fold higher",[2],3 fold
